Ends that are not written are not given here. * marks the point of attachment. Biotin = O=C1N[C@H]2[C@H](CS[C@H]2CCCCC(=O)*)N1
Tests used:
[1] = target: T1, GST-mouse syntenin fusion protein (Mus musculus, UniProt O08992 108-286); test: A/G plate assays, Table 2 matrix
T1 construct: also called Mus musculus Syntenin; not shown: glutathione S-transferase encoded by vector pGEX-3X (Pharmacia)
T1 chain: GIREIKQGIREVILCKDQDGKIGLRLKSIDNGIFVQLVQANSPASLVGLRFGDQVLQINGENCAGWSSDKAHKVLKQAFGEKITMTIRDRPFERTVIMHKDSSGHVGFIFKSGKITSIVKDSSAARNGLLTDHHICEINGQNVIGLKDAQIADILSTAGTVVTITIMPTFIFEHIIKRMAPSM

[2] = target: T2, GST-DLG5 (p-dlg) PDZ domain fusion protein (Human, UniProt Q8TDM6 1343-1583); test: A/G plate assays, Table 2 matrix
T2 construct: also called Human discs large protein p-dlg; not shown: glutathione S-transferase encoded by vector pGEX-3X (Pharmacia)
T2 sequence: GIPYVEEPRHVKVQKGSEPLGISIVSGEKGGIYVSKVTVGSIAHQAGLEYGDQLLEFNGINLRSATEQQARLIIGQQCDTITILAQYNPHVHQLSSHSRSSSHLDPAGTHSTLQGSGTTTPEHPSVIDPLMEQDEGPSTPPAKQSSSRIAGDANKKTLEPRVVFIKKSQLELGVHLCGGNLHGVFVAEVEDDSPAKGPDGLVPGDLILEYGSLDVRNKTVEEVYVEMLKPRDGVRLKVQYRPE

[3] = target: T3, GST-cytohesin binding protein PDZ domain fusion protein (Homo sapiens (Human), UniProt O60759 74-165); test: A/G plate assays, Table 2 matrix
T3 construct: also called CBP; not shown: glutathione S-transferase encoded by vector pGEX-3X (Pharmacia)
T3 sequence: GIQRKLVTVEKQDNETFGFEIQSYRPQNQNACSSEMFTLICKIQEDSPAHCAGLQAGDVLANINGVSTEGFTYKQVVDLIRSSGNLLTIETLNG

[4] = target: T4, KIAA0807 (PDZ domain)-GST fusion protein (human, UniProt Q6P0Q8 1104-1192); test: G assay on KIAA0807:GST fusion protein, 10 uM labeled peptide
T4 construct: also called K807; KIAA807; not shown: glutathione S-transferase encoded by vector pGEX-3X (Pharmacia)
T4 sequence: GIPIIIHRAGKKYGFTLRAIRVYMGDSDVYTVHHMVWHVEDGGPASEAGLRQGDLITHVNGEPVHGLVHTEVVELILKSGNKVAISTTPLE

[5] = target: T5, GST-DVL1 PDZ domain fusion protein (human, UniProt O14640 247-339); test: A/G plate assays, Table 2 matrix
T5 construct: also called human dishevelled segment polarity protein homolog; not shown: glutathione S-transferase encoded by vector pGEX-3X (Pharmacia)
T5 sequence: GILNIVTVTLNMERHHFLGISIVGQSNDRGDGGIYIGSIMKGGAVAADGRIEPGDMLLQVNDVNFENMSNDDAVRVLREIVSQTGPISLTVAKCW

B1: CD44 C-terminal peptide AA9L, biotinylated (peptide)
peptide: Biotin-QFMTADETRNLQNVDMKIGV
notes: also called CD44 (long form)
**Q.** Does B1 bind [1]?
**A.** Result: binds

B2: Spectrin (beta) C-terminal peptide AA32L, biotinylated (peptide)
peptide: Biotin-SFPPCGHRENVPGQSLVSFV
notes: Marked (S), sticky; also called Spectrin beta (S); Spectrin β
**Q.** Does B2 bind [2]?
**A.** Result: binds

**Q.** Does B2 bind [3]?
**A.** Result: binds

B3: DOCK2 C-terminal peptide AA40L, biotinylated (peptide)
peptide: Biotin-LASKSAEEGKQIPDSLSTDL
**Q.** Does B3 bind [4]?
**A.** Result: binds

B4: KV1.3 C-terminal peptide AA33L, biotinylated (peptide)
peptide: Biotin-TTNNNPNSAVNIKKIFTDV
**Q.** Does B4 bind [5]?
**A.** Result: binds

— patent US20050037969A1 (ARBOR VITA, published 2005)
